Target: ALK F1174L, human (human) (UniProt Q9UM73)
Assay: flow cytometry, SY5Y cells stained with isotype control

mean fluorescence intensity (MFI): 90
Substance: isotype control (antibody)
